Assay results as given in article PMC10058238, “Mechanism of sphingolipid homeostasis revealed by structural analysis of Arabidopsis SPT-ORM1 complex” (Science Advances, 2023).
Numbering of substitutions follows the chain as printed. Names may count otherwise.

T1: Flag-tagged Arabidopsis SPTssa (Arabidopsis, UniProt A8MSB8 1-56)
T1 construct: SPTssa, small subunit of serine palmitoyltransferase, Arabidopsis; codon-optimized cDNA in pCAG; residues 1 to 48 are in the atomic model; The only tagged subunit; bait of every purification; also called Flag-SPTssa; Flag-AtSPTssa; source: HEK293F, transiently cotransfected with the other subunits, purified as a complex (anti-Flag resin, Superose 6) in GDN; not shown: Flag, N-terminal, kept
T1 sequence: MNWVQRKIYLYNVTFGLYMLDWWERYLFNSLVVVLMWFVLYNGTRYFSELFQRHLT

T2: Arabidopsis LCB2a-ΔN5 (Arabidopsis, UniProt Q9LSZ9 1-489, LCB2a-ΔN5 (deletion of residues 2 to 5))
T2 construct: LCB2a, Arabidopsis, with residues 2 to 5 deleted; also called LCB2a-ΔN5 variant
T2 sequence: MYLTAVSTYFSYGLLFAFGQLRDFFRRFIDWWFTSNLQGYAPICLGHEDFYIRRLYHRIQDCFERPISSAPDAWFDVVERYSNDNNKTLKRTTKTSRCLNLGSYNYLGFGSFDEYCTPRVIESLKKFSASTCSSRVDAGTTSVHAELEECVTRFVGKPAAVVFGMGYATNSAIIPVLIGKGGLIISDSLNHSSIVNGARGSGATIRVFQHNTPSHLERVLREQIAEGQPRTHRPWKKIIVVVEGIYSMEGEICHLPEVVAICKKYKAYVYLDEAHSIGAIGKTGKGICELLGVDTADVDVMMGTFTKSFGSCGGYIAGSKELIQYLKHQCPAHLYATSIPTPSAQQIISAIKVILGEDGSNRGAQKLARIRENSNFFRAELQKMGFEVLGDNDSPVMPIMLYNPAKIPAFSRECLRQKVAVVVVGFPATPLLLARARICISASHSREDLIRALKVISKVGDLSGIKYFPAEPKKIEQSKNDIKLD

T3: Arabidopsis SPT complex (LCB1, LCB2a, SPTssa) (Arabidopsis, UniProt Q94IB8 1-482; Q9LSZ9 1-489; A8MSB8 1-56)
T3 sequence 1: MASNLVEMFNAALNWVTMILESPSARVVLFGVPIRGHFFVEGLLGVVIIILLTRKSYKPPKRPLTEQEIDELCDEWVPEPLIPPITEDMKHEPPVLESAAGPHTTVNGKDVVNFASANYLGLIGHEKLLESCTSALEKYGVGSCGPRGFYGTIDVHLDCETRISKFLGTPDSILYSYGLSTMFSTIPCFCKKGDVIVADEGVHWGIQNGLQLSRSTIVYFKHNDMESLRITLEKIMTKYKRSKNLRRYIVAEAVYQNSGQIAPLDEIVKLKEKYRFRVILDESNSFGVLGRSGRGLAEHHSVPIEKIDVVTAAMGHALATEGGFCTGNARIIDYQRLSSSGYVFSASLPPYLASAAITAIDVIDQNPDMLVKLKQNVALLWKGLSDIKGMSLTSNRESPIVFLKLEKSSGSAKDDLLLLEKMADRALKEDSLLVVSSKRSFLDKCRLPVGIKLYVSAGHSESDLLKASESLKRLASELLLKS
T3 sequence 2: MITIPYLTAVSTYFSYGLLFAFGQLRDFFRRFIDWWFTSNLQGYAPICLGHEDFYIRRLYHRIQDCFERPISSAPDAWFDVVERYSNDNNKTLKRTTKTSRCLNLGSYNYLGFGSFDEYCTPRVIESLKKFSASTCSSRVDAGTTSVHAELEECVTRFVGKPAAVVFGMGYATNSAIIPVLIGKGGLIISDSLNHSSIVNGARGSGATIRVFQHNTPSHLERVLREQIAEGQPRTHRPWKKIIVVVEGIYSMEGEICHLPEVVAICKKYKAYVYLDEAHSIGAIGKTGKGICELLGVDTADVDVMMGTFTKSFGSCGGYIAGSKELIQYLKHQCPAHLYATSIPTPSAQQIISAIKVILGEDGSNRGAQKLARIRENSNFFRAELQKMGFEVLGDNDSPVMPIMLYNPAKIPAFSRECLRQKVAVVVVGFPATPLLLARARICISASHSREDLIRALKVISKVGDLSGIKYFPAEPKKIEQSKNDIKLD
T3 sequence 3: T1 sequence

B1: Arabidopsis LCB1 (natural protein, UniProt Q94IB8 1-482, looked up)
chain: T3 sequence 1
notes: LCB1, subunit of serine palmitoyltransferase, Arabidopsis; codon-optimized cDNA in pCAG without a tag; residues 36 to 480 are in the atomic model; also called AtLCB1; source: HEK293F, transiently cotransfected with the other subunits, purified as a complex (anti-Flag resin, Superose 6) in GDN
B2: Arabidopsis ORM1 (natural protein)
chain: MANLYVKAVPPPDMNRNTEWFMYPGVWTTYMLILFFGWLVVLSVSGCSPGMAWTVVNLAHFVVTYHSFHWMKGTPFADDQGIYNGLTWWEQMDNGQQLTRNRKFLTLVPVVLYLIASHTTDYRHPWLFLNTLAVMVLVVAKFPNMHKVRIFGINGDK
notes: ORM1, Arabidopsis; codon-optimized cDNA in pCAG without a tag; residues 1 to 156 are in the atomic model; also called AtORM1; WT ORM1
B3: Arabidopsis SPT-ORM1 complex (LCB1, LCB2a, SPTssa, ORM1) (complex)
chain 1: T3 sequence 1
chain 2: T3 sequence 2
chain 3: T1 sequence
chain 4: B2 chain
modifications: pyridoxal 5'-phosphate covalently linked to the ε-amino group of Lys311 (internal aldimine)
notes: LCB1, Arabidopsis; as m1; LCB2a, Arabidopsis; as m2; SPTssa, Arabidopsis; as m3; ORM1, Arabidopsis; as m4; One protomer (1:1:1:1) of the dimer seen by cryo-EM; an endogenous ceramide copurifies between ORM1 and LCB2a; also called AtSPT-ORM1; WT SPT-ORM1 complex; source: HEK293F, transiently cotransfected (LCB1:LCB2a:ORM1:SPTssa = 3:3:3:1), purified (anti-Flag resin, Superose 6) in GDN; not shown: …
B4: Arabidopsis ORM1-N17A (natural protein)
chain: B2 chain with N17A
notes: ORM1, Arabidopsis, with N17A; residues 1 to 11 almost invisible in the map; also called ORM1-N17A variant
B5: Arabidopsis LCB2a (natural protein)
chain: T3 sequence 2
modifications: pyridoxal 5'-phosphate covalently linked to the ε-amino group of Lys311 (internal aldimine)
notes: LCB2a, subunit of serine palmitoyltransferase, Arabidopsis; codon-optimized cDNA in pCAG without a tag; residues 1 to 36 and 41 to 475 are in the atomic model; The sentence on the PLP link prints 'LCB2b'; the construct is LCB2a; also called AtLCB2a; source: HEK293F, transiently cotransfected with the other subunits, purified as a complex (anti-Flag resin, Superose 6) in GDN

Experiments:
[1] = target: T1, Flag-tagged Arabidopsis SPTssa; assay: cryo-EM structure; single-particle cryo-EM of the coexpressed, purified complexes (WT, ORM1-N17A, LCB2a-ΔN5) at ~18 mg/ml in 25 mM Hepes pH 7.5, 150 mM NaCl, 0.01% GDN; the LCB2a-ΔN5 sample preincubated with 0.5 mM PLP, 10 mM L-serine and 1 mM S-CoA; conditions: both partners purified
[2] = target: B5; assay: as above; conditions: both partners purified
[3] = target: T2, Arabidopsis LCB2a-ΔN5; assay: as above; conditions: both partners purified
[4] = target: T3, Arabidopsis SPT complex (LCB1, LCB2a, …); assay: cell-based or functional assay
[5] = target: the molecule itself; assay: cryo-EM structure; single-particle cryo-EM of the coexpressed, purified complexes (WT, ORM1-N17A, LCB2a-ΔN5) at ~18 mg/ml in 25 mM Hepes pH 7.5, 150 mM NaCl, 0.01% GDN; the LCB2a-ΔN5 sample preincubated with 0.5 mM PLP, 10 mM L-serine and 1 mM S-CoA

stoichiometry N [1]	binding result [2]	Binder	also measured
1		B1	
1	binds	B2	binding result [3]: binds; specific SPT activity of the purified SPT-ORM1 complex at saturating conditions, relative to the SPT complex [4]: ~50%
		B3	stoichiometry N [5]: 2
	binds	B4	
1		B5	
